Results: US20060257938A1, “Method of screening for drugs that block ligand binding to a lipid binding protein” (priority 2005, published 2006)
Changes are numbered by the printed parent chain. Where “and” joins values, the source holds several entries; their conditions need not be identical. Equal values may be shown once.

B1: 38Y 74F 72A (protein, listed as Rattus norvegicus)
chain: AFDGTWKVDRNENYEKFMEKMGINVVKRKLGAHDNLKYTITQEGNKFTVKESSNFRNIDVVFELGVDFAYSAAFGTELTGTWTMEGNKLVGKFKRVDNGKELIAVREISGNELIQTYTYEGVEAKRIFKKE
modifications: PEPTIDE (1)...(131) wild-type rat intestinal fatty acid binding protein
B2: 21F 78I 102F 72A (protein, listed as Rattus norvegicus)
chain: B1 chain with M21F, Y38L, F74D, L78I, L102F
modifications: PEPTIDE (1)...(131) wild-type rat intestinal fatty acid binding protein
B3: 73W 74I (protein, listed as Rattus norvegicus)
chain: B1 chain with Y38L, A72L, A73W, F74I
modifications: PEPTIDE (1)...(131) wild-type rat intestinal fatty acid binding protein
B4: 60T 104T 115W 74F 72A (protein, listed as Rattus norvegicus)
chain: B1 chain with Y38L, V60T, A104T, Q115W
modifications: PEPTIDE (1)...(131) wild-type rat intestinal fatty acid binding protein
B5: 72S 73W 74E (protein, listed as Rattus norvegicus)
chain: B1 chain with Y38L, A72S, A73W, F74E
modifications: PEPTIDE (1)...(131) wild-type rat intestinal fatty acid binding protein
B6: 73W 74T (protein, listed as Rattus norvegicus)
chain: B1 chain with Y38L, A72L, A73W, F74T
modifications: PEPTIDE (1)...(131) wild-type rat intestinal fatty acid binding protein
B7: 72S 73W 74N (protein, listed as Rattus norvegicus)
chain: B1 chain with Y38L, A72S, A73W, F74N
modifications: PEPTIDE (1)...(131) wild-type rat intestinal fatty acid binding protein
B8: 72G 73W 74E (protein, listed as Rattus norvegicus)
chain: B1 chain with Y38L, A72G, A73W, F74E
modifications: PEPTIDE (1)...(131) wild-type rat intestinal fatty acid binding protein
B9: 72T 73W 74S (protein, listed as Rattus norvegicus)
chain: B1 chain with Y38L, A72T, A73W, F74S
modifications: PEPTIDE (1)...(131) wild-type rat intestinal fatty acid binding protein
B10: 72A 73W 74S (protein, listed as Rattus norvegicus)
chain: B1 chain with Y38L, A73W, F74S
modifications: PEPTIDE (1)...(131) wild-type rat intestinal fatty acid binding protein
B11: 72V 73L 74W (protein, listed as Rattus norvegicus)
chain: B1 chain with Y38L, A72V, A73L, F74W
modifications: PEPTIDE (1)...(131) wild-type rat intestinal fatty acid binding protein
B12: 72A 73W 74E (protein, listed as Rattus norvegicus)
chain: B1 chain with Y38L, A73W, F74E
modifications: PEPTIDE (1)...(131) wild-type rat intestinal fatty acid binding protein
B13: 18L 73V 72A (protein, listed as Rattus norvegicus)
chain: B1 chain with M18L, Y38L, A73V, F74D
modifications: PEPTIDE (1)...(131) wild-type rat intestinal fatty acid binding protein

test: Probe fluorescence ratio response to palmitoleic acid relative to ADIFAB2; type: binding; conditions: response relative to ADIFAB2
Text: (§1) In an alternate preferred embodiment, the protein is rI-FABP that has Ala substituted for Leu at position 72 (rI-FABP-L72A) with the resulting probe named ADIFAB2. […] Other probes useful in embodiments of the invention are shown in Tables 1-6 and are also described in U.S. application Ser. No. 11/085,792, filed Mar. 21, 2005 which is incorporated herein by reference. The indicated substitutions are with reference to the ADIFAB protein of SEQ ID NO: 2.
(§2) ADIFAB2 also has an altered spectral response, making it especially useful for measurements of FFAu in blood samples (Apple et al, Clinical Proteomics, (2004) 1:41-44, U.S. patent application Ser. No. 10/670,958). The wavelengths at the maximum intensities emitted by these fluorescently-labeled I-FABP's in the absence of FFA is about 420 to 480 nm. The emission wavelengths at the maximum intensities emitted by these fluorescently-labeled I-FABP's with FFA bound are between about 495 to 580 nm. Experiments typically involve measuring the fluorescence response within both emission maxima or at wavelengths for which the effect of interfering molecules such as hemoglobin can be eliminated as described in U.S. application Ser. No. 10/670958 and PCT/US2004/030521 and the calculation of the ratio ‘R’ of the two fluorescence intensities. The baseline value for this ratio, measured in the absence of analyte, is designated R0.
(§3) The intensity ratio (“R” value) is determined as follows. The ratio is calculated using the following formula: R=Fλ1/Fλ2 wherein, Fλ1 is the measured fluorescence intensities (intensity of sample with probe present minus intensity of sample without probe present) at wavelength 1 and Fλ2 is the measured fluorescence intensities (intensity of sample with probe present minus intensity of sample without probe present) at wavelength 2. Then, for a given probe, ΔR, the difference in R value between the measurement in the presence of the test compound (agent) and in the absence of the test compound (agent), is calculated as follows: ΔR=R+agent−R0 In some embodiments, the ΔR value may then be compared to some reference, for example, an agent with a known affinity for a given probe, by ΔR/ΔRreference. Measurements of fluorescence intensities are obtained using standard techniques.

| Molecule | DR/DR POA |
| --- | --- |
| B1 | 1.514 |
| B2 | 2.788 |
| B3 | 2.697 |
| B4 | 2.511 |
| B5 | 6.109 |
| B6 | 5.818 |
| B7 | 4.867 |
| B8 | 6.069 |
| B9 | 5.826 |
| B10 | 4.864 |
| B11 | 1.710 |
| B12 | 6.615 |

test: Probe fluorescence ratio response to linolenic acid relative to ADIFAB2; type: binding; conditions: response relative to ADIFAB2
Procedure, shortened: (§4)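 Fluorescently labeled rat intestinal FABP variants were read at two emission wavelengths, near the unbound maximum (about 420 to 480 nm) and the FFA-bound maximum (about 495 to 580 nm). R = Fλ1/Fλ2 after subtracting probe-free intensity; ΔR = R+agent − R0, normalized to ADIFAB2 (rI-FABP-L72A).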

| Molecule | DR/DR LNA |
| --- | --- |
| B1 | 1.166 |
| B2 | 3.006 |
| B3 | 1.325 |
| B4 | 2.017 |
| B5 | 4.799 |
| B6 | 3.286 |
| B7 | 4.220 |
| B8 | 5.501 |
| B9 | 4.826 |
| B10 | 4.401 |
| B11 | 1.209 |
| B12 | 5.422 |

test: Probe fluorescence ratio response to palmitic acid relative to ADIFAB2; type: binding; conditions: response relative to ADIFAB2
Procedure, shortened: as §4

| Molecule | DR/DR PA |
| --- | --- |
| B1 | 1.397 |
| B2 | 2.383 |
| B3 | 1.884 |
| B4 | 1.920 |
| B5 | 4.210 |
| B6 | 3.883 |
| B7 | 3.333 |
| B8 | 3.944 |
| B9 | 4.155 |
| B10 | 4.039 |
| B11 | 1.276 |
| B12 | 4.937 |

test: Probe fluorescence ratio response to stearic acid relative to ADIFAB2; type: binding; conditions: response relative to ADIFAB2
Text: as §1, §2, §3

| Molecule | DR/DR SA |
| --- | --- |
| B1 | 0.362 |
| B2 | 2.367 |
| B3 | 0.423 |
| B4 | 0.633 |
| B5 | 1.285 |
| B6 | 0.726 |
| B7 | 1.255 |
| B8 | 0.955 |
| B9 | 1.620 |
| B10 | 1.095 |
| B13 | 0.359 and 0.427 |
| B11 | 0.348 |
| B12 | 1.289 |

test: Probe fluorescence ratio response to linoleic acid relative to ADIFAB2; type: binding; conditions: response relative to ADIFAB2
Procedure, shortened: as §4

| Molecule | DR/DR LA |
| --- | --- |
| B1 | 0.926 |
| B2 | 2.872 |
| B3 | 1.130 |
| B4 | 1.609 |
| B5 | 4.079 |
| B6 | 2.480 |
| B7 | 3.977 |
| B8 | 5.045 |
| B9 | 4.612 |
| B10 | 3.806 |
| B11 | 1.225 |
| B12 | 4.686 |

test: Probe fluorescence ratio response to arachidonic acid relative to ADIFAB2; type: binding; conditions: arachidonic acid; response relative to ADIFAB2
Procedure, shortened: as §4

| Molecule | DR/DR AA |
| --- | --- |
| B1 | 0.605 |
| B2 | 4.836 |
| B3 | 0.757 |
| B4 | 0.873 |
| B5 | 3.751 |
| B6 | 1.456 |
| B7 | 3.770 |
| B8 | 4.229 |
| B9 | 4.129 |
| B10 | 3.211 |
| B13 | 0.615 and 0.475 |
| B11 | 0.500 |
| B12 | 4.093 |

test: Probe fluorescence ratio response to oleic acid relative to ADIFAB2; type: binding; conditions: response relative to ADIFAB2
Procedure, shortened: as §4

| Molecule | DR/DR OA |
| --- | --- |
| B1 | 0.646 |
| B2 | 3.312 |
| B3 | 0.912 |
| B4 | 1.149 |
| B5 | 3.212 |
| B6 | 1.902 |
| B7 | 3.490 |
| B8 | 2.755 |
| B9 | 4.177 |
| B10 | 3.155 |
| B11 | 0.648 |
| B12 | 3.277 |
